This is an account of results in PMC5004148.

Assay [1] has as its target transmembrane truncated VP24 (residues 28-208) (White spot syndrome virus (WSSV)). The experiment in a line: crystal structure; X-ray, SAD phasing, 2.4 Å, space group I 2(1) 3; trimer by the crystallographic three-fold axis; 0.1 M Tris-HCl pH 8.5, 2.75 M ammonium acetate, 10 mM ATP as additive, 16 °C.
For assay [2] the target is unchanged. Nature of the assay: cross-linking; purified VP24 in PBS (around 0.6 mg/ml in 40 ul) with rising glutaraldehyde, room temperature, 4 h; 15% SDS-PAGE, Coomassie blue.

In the case of “transmembrane truncated VP24 (residues 28-208) (domain or fragment)”, the stoichiometry N in assay [1] and in assay [2] was 3 each time.

One may read the stoichiometry N as a count of units in the complex or per binding partner.
